One molecule from paper PMC9223101, “Transcription Regulation of Cell Cycle Regulatory Genes Mediated by NtrX to Affect Sinorhizobium meliloti Cell Division” can be followed below.

The data set addresses T1, NtrX D53E (His-NtrXD53E) (Sinorhizobium meliloti 1021, UniProt Q92Q87 1-454, D53E).
T1 sequence: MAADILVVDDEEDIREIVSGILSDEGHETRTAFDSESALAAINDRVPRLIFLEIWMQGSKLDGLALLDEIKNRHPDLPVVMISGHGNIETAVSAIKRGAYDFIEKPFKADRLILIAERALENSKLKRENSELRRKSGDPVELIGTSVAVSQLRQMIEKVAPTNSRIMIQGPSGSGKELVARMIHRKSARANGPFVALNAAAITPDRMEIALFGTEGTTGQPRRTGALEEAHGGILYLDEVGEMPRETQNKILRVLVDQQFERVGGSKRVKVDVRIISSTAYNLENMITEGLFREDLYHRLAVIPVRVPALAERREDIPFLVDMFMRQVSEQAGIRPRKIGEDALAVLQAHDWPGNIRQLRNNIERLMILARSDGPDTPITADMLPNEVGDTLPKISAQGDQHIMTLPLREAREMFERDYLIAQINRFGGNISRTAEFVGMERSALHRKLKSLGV
The data set is described as follows: EMSA; 5 mM Mg2+; almost no complex; EMSA, 20 uL: 3, 6, 15 ng NtrX, 2 nM probe (2 or 40 nM in Methods), 1x binding buffer, 5 mM MgCl2, 50 ng/uL poly(dI-dC), 0.05% NP-40, 1% glycerol, 30 min at 28 C; pH and salt of binding buffer not stated (phosphorylation in 50 mM Tris-HCl pH 7.6, 50 mM KCl, 20 mM MgCl2 nominal 1x). The note with it: protein: recombinant; tags: His (pET28b); chain copies: 2; label: biotin; blunt.

B1: ntrY promoter probe (dsDNA)
DNA 1: GCGCTTGACTGAGATGCAACACCGTTGCATTTTCGCCACAATGCGTTGCTTGAACCTCGCATAAGCGTCGATTCGCCGGC
DNA 2: GCCGGCGAATCGACGCTTATGCGAGGTTCAAGCAACGCATTGTGGCGAAAATGCAACGGTGTTGCATCTCAGTCAAGCGC
B1: the binding result is on record as “no binding”.
